The assay addresses soluble HLA-DM, wild type (DM WT) (human) (UniProt P28067). As to the kind of experiment: SPR.

In general, Kd refers to the equilibrium constant for the complex coming apart. Read a high Kd as lower affinity.

Turning to “DR1 (DRα V65C) with disulfide-linked HA6 P2-P11 peptide (from UniProt P01903) (peptide-MHC)”, the Kd came to 1000 nM and the percent of maximal DM binding at pH 7.0 worked out at 40%.

Values taken from PMC3018327 (Nature immunology, 2010).
